Experimental data: paper PMC7126681

Assays:
[1] = biological target: His-tagged griffithsin (SeMet-labeled, E. coli-expressed) (Griffithsia sp.) (UniProt P84801); test: crystal structure
[2] = biological target: plant-expressed griffithsin (Griffithsia sp.) (UniProt P84801); test: crystal structure

Substance | stoichiometry N [1] | stoichiometry N [2]
His-tagged griffithsin (SeMet-labeled, E. coli-expressed) (from UniProt P84801 1-121) (natural protein) | 2 | –
plant-expressed griffithsin (from UniProt P84801 1-121) (natural protein) | – | 2
